Our source for the stoichiometry N values is paper PMC11457148.

As a reminder, the stoichiometry N is a count of units in the complex or per binding partner.

For the test, the target named is Isu1 (mature, residues 36-165) with the C-terminal His tag (S. cerevisiae) (UniProt Q03020). In words: native MS.

B1: Hsc20 without tag, co-expressed with Isu1 and Ssq1* (natural protein)
chain: TSTFYELFPKTFPKKLPIWTIDQSRLRKEYRQLQAQHHPDMAQQGSEQSSTLNQAYHTLKDPLRRSQYMLKLLRNIDLTQEQTSNEVTTSDPQLLLKVLDIHDELSQMDDEAGVKLLEKQNKERIQDIEAQLGQCYNDKDYAAAVKLTVELKYWYNLAKAFKDWAPGKQLEMNH
B1 displayed a stoichiometry N of 1.
